Among the data in paper PMC4720564 (Chemical communications (Cambridge, England), 2016) are LC-MS product formation, Km and kcat values, retold here.

The target of one data set is WelP1 (Hapalosiphon welwitschii, UniProt A0A067YVH5). Kind of data set: LC-MS product formation. The settings on record: co-substrate GPP; MgCl2 5 mM; Tris 50 mM pH 8.0. The class given is biochemical.
The subject of data set [1] is [C-]#[N+]/C=C\c1c[nH]c2ccccc12. Kind of data set: purified protein. The following applies: co-substrate GPP, MgCl2 10 mM, pH 8.0. The class given is biochemical, Fischerella ambigua.

`[C-]#[N+]/C=C\c1c[nH]c2ccccc12` [(Z)-1, cis-indolyl vinyl isonitrile]: the LC-MS product formation entry at WelP1 is “The enzymatic products derived from WelP1 and FidP1 are perfectly identical to that from AmbP1”.

With AmbP1 (Fischerella ambigua UTEX 1903), in data set [1], the Michaelis-Menten constant (Km) worked out at 15.4 ± 3.2 µM and the kcat amounted to 6.9 ± 1.2 s⁻¹.

One may read the Km as the substrate concentration at which the rate is half of its maximum. In general, kcat refers to the maximal rate divided by the concentration of active sites.
